Data: the Human Domainome abundance scans (Beltran et al. 2025)
± gives the uncertainty stated by the source.

B1: Death-inducer obliterator 1, residues 263 to 321; numbered along this chain, Q9BTC0 (parent)
chain: GYDPNALYCICRQPHNNRFMICCDRCEEWFHGDCVGISEARGRLLERNGEDYICPNCTI

Variants of: B1
Assay: abundance fitness (aPCA) (normalised: wild type 0, dead -1); higher = more abundant; growth selection in yeast, the domain comes from the species named
Conditions: Homo sapiens

Abundance fitness: each site, then its substitutions
S38: L -0.076 ± 0.059 | A -0.053 ± 0.13 | M 0.118 ± 0.12 | T 0.027 ± 0.071 | G 0.03 ± 0.1 | H -0.033 ± 0.15 | K -0.17 ± 0.11 | Q -0.251 ± 0.13 | N -0.245 ± 0.34 | D 0.197 ± 0.081 | Y -0.193 ± 0.1 | E -0.146 ± 0.13 | F -0.238 ± 0.13 | R -0.13 ± 0.056 | I 0.155 ± 0.13 | V 0.071 ± 0.067 | C -0.166 ± 0.16 | W -0.109 ± 0.2 | P 0.001 ± 0.065
G36: L -0.135 ± 0.061 | C -0.122 ± 0.092 | A -0.153 ± 0.089 | W -0.469 ± 0.1 | R -0.072 ± 0.047 | I -0.15 ± 0.096 | D 0.038 ± 0.082 | S -0.002 ± 0.058 | P -0.425 ± 0.13 | H -0.111 ± 0.14 | F -0.256 ± 0.12 | Q 0.013 ± 0.084 | M 0.009 ± 0.062 | E 0.057 ± 0.072 | V -0.173 ± 0.059 | Y -0.066 ± 0.069
I37: Y 0.094 ± 0.086 | T 0.062 ± 0.09 | M -0.208 ± 0.11 | A -0.127 ± 0.061 | E -0.054 ± 0.07 | G -0.122 ± 0.053 | S -0.133 ± 0.072 | C -0.113 ± 0.12 | F -0.095 ± 0.097 | W 0.061 ± 0.049 | P -0.253 ± 0.088 | Q 0.091 ± 0.066 | R -0.017 ± 0.057 | K 0.168 ± 0.097 | L -0.054 ± 0.062 | V -0.12 ± 0.072 | D -0.447 ± 0.21 | H -0.076 ± 0.14
F30: P -0.711 ± 0.17 | T -0.38 ± 0.092 | I -0.289 ± 0.1 | M 0.013 ± 0.048 | Q -0.471 ± 0.15 | R -0.306 ± 0.086 | S -0.266 ± 0.054 | N -0.013 ± 0.087 | L -0.006 ± 0.051 | D -0.749 ± 0.13 | H 0.004 ± 0.15 | E -0.954 ± 0.34 | C -0.08 ± 0.081 | V -0.327 ± 0.12 | K -0.349 ± 0.065 | Y -0.041 ± 0.093 | G -0.269 ± 0.14 | W -0.325 ± 0.12 | A -0.283 ± 0.086
A40: M 0.004 ± 0.082 | N -0.434 ± 0.28 | S -0.022 ± 0.084 | T -0.077 ± 0.085 | D -0.019 ± 0.071 | L 0.043 ± 0.05 | V -0.146 ± 0.06 | Q -0.315 ± 0.14 | F -0.262 ± 0.086 | H -0.182 ± 0.25 | Y -0.094 ± 0.12 | G -0.11 ± 0.068 | C 0.151 ± 0.1 | P -0.143 ± 0.11 | R -0.205 ± 0.093 | W -0.193 ± 0.07
C34: T -0.703 ± 0.092 | F -1.12 ± 0.17 | D -0.376 ± 0.16 | E -0.608 ± 0.12 | H -0.368 ± 0.066 | L -0.805 ± 0.087 | S -0.867 ± 0.11 | M -0.831 ± 0.14 | G -0.726 ± 0.28 | P -0.803 ± 0.12 | W -1.03 ± 0.2 | R -0.697 ± 0.089 | K -0.763 ± 0.14 | N -0.937 ± 0.15 | Q -0.644 ± 0.098 | A -0.68 ± 0.12
L45: I -0.214 ± 0.24 | W -0.14 ± 0.094 | K -0.173 ± 0.14 | D -0.01 ± 0.13 | G -0.068 ± 0.059 | Y -0.055 ± 0.095 | R -0.005 ± 0.064 | M -0.096 ± 0.11 | V 0.016 ± 0.064 | T -0.08 ± 0.15 | E 0.075 ± 0.11 | F -0.295 ± 0.15 | H 0.152 ± 0.091 | C -0.062 ± 0.097 | P -0.014 ± 0.094 | S 0.033 ± 0.07
E27: D 0.012 ± 0.11 | Q -0.066 ± 0.11 | R -0.071 ± 0.047 | V -0.193 ± 0.084 | L -0.107 ± 0.05 | I -0.158 ± 0.072 | T -0.007 ± 0.067 | Y 0.015 ± 0.067 | K 0.237 ± 0.068 | S -0.033 ± 0.053 | W -0.09 ± 0.076 | G -0.074 ± 0.072 | P -0.004 ± 0.082 | C -0.237 ± 0.12
C26: M -0.926 ± 0.14 | W -0.416 ± 0.19 | Y -0.794 ± 0.13 | Q -0.985 ± 0.25 | T -0.782 ± 0.16 | R -1.02 ± 0.16 | L -1.03 ± 0.13 | P -0.599 ± 0.17
H31: W -0.507 ± 0.11 | L -0.628 ± 0.088 | I -0.67 ± 0.096 | K -0.967 ± 0.26 | T -0.956 ± 0.14 | E -0.923 ± 0.22 | D -0.422 ± 0.12 | S -0.776 ± 0.09 | R -0.584 ± 0.1 | V -0.664 ± 0.093 | Y -0.732 ± 0.17 | P -1.05 ± 0.22 | C -0.282 ± 0.075 | Q -0.782 ± 0.29 | M -0.667 ± 0.11 | A -0.636 ± 0.1 | N -0.765 ± 0.14 | F -0.559 ± 0.12
G42: D -0.044 ± 0.12 | C 0.065 ± 0.18 | N 0.334 ± 0.17 | W 0.29 ± 0.086 | M 0.096 ± 0.067 | E 0.25 ± 0.14 | H 0.245 ± 0.12 | P -0.151 ± 0.11 | S -0.051 ± 0.13 | Q 0.048 ± 0.13 | T 0.017 ± 0.093 | Y 0.067 ± 0.082 | L 0.062 ± 0.048 | V 0.069 ± 0.072 | R 0.315 ± 0.073 | I 0.193 ± 0.21 | F -0.029 ± 0.1
L44: T -0.069 ± 0.11 | K 0.048 ± 0.079 | C -0.026 ± 0.065 | H 0.108 ± 0.15 | S 0.021 ± 0.056 | P 0.092 ± 0.06 | Q 0.047 ± 0.081 | V -0.045 ± 0.062 | W -0.015 ± 0.075 | N 0.121 ± 0.065 | G 0.08 ± 0.061 | I -0.238 ± 0.12 | Y -0.028 ± 0.08 | A 0.03 ± 0.058 | R 0.08 ± 0.049 | D -0.063 ± 0.085 | M 0.029 ± 0.14 | F 0.097 ± 0.067
V35: N -0.171 ± 0.099 | E -0.602 ± 0.1 | Y -0.707 ± 0.12 | G -0.333 ± 0.083 | P -0.345 ± 0.083 | A -0.058 ± 0.07 | M -0.043 ± 0.066 | W -0.61 ± 0.16 | F -0.225 ± 0.083 | S -0.403 ± 0.069 | K -0.407 ± 0.077 | R -0.387 ± 0.07 | Q -0.183 ± 0.1 | I 0.159 ± 0.066 | T -0.095 ± 0.074 | D -0.351 ± 0.094 | C -0.113 ± 0.12
R41: D 0.347 ± 0.2 | W -0.443 ± 0.16 | V 0.075 ± 0.068 | E 0.085 ± 0.11 | N 0.24 ± 0.12 | I -0.157 ± 0.13 | F -0.133 ± 0.15 | Q -0.193 ± 0.24 | K -0.008 ± 0.1 | A 0.075 ± 0.082 | P 0.135 ± 0.093 | S 0.041 ± 0.085 | Y -0.065 ± 0.17 | C 0.062 ± 0.08 | T -0.099 ± 0.094 | M -0.05 ± 0.088 | L -0.078 ± 0.071 | G 0.037 ± 0.058
E28: H -0.075 ± 0.084 | N -0.231 ± 0.17 | M -0.056 ± 0.12 | F -0.028 ± 0.07 | S -0.106 ± 0.057 | I -0.235 ± 0.12 | Q -0.198 ± 0.1 | V 0.015 ± 0.058 | K 0.045 ± 0.065 | L -0.055 ± 0.055 | Y -0.122 ± 0.09 | T 0.065 ± 0.066 | P -0.742 ± 0.13 | W -0.019 ± 0.098 | A -0.153 ± 0.076 | C -0.032 ± 0.11 | D 0.125 ± 0.13
G32: Y -0.421 ± 0.18 | N -0.179 ± 0.1 | W 0.05 ± 0.069 | F -0.016 ± 0.1 | E 0.022 ± 0.05 | A 0.067 ± 0.075 | D 0.045 ± 0.097 | L 0.025 ± 0.046 | S -0.036 ± 0.045 | P -0.155 ± 0.067 | I 0.169 ± 0.071 | M -0.054 ± 0.045 | R 0.026 ± 0.05 | Q -0.054 ± 0.084 | H -0.009 ± 0.13 | T 0.084 ± 0.073 | V -0.055 ± 0.059
E39: N -0.017 ± 0.073 | M -0.21 ± 0.11 | I -0.226 ± 0.13 | V -0.036 ± 0.061 | Q -0.048 ± 0.11 | R -0.037 ± 0.074 | T -0.213 ± 0.08 | S -0.061 ± 0.066 | P -0.257 ± 0.086 | F -0.043 ± 0.081 | G -0.217 ± 0.049 | Y -0.22 ± 0.098 | D -0.144 ± 0.084 | L -0.055 ± 0.062 | W -0.143 ± 0.1 | A -0.262 ± 0.066 | H -0.277 ± 0.22
D33: R -0.002 ± 0.052 | W -0.237 ± 0.063 | L -0.047 ± 0.045 | C -0.013 ± 0.068 | E -0.026 ± 0.077 | P -0.136 ± 0.059 | A -0.154 ± 0.078 | H -0.101 ± 0.072 | G -0.027 ± 0.04 | N -0.259 ± 0.075 | V -0.198 ± 0.054 | M -0.195 ± 0.08 | S -0.048 ± 0.059 | K -0.028 ± 0.078 | Y 0.13 ± 0.082 | T 0.008 ± 0.066 | Q -0.127 ± 0.11
W29: N 0.224 ± 0.14 | M 0.176 ± 0.083 | C 0.045 ± 0.084 | H -0.02 ± 0.12 | P 0.05 ± 0.071 | D 0.025 ± 0.18 | E 0.277 ± 0.1 | K 0.2 ± 0.12 | V 0.252 ± 0.056 | R 0.173 ± 0.056 | G -0.02 ± 0.067 | L 0.215 ± 0.049 | T 0.242 ± 0.058 | A 0.161 ± 0.056 | I 0.225 ± 0.064 | Y 0.064 ± 0.12 | S 0.17 ± 0.042
R43: V -0.202 ± 0.097 | G 0.103 ± 0.092 | D -0.292 ± 0.2 | P 0.182 ± 0.078 | Q 0.059 ± 0.14 | M 0.017 ± 0.12 | E 0.133 ± 0.12 | H 0.154 ± 0.18 | K 0.057 ± 0.2 | L 0.029 ± 0.064 | Y -0.044 ± 0.089 | A 0.143 ± 0.15 | N 0.044 ± 0.2 | I 0.081 ± 0.095 | W -0.132 ± 0.17 | T -0.049 ± 0.11 | F -0.318 ± 0.097 | C 0.188 ± 0.13 | S 0.114 ± 0.059
